# Reference: the DeepSol protein solubility set
# Assay: soluble on expression in E. coli; label from the status in PepcDB or PDB records
row,Sequence,soluble on expression in E. coli
1,MKMKKITAMSMAALMAATMIPSVPVMADGGGKVYYLNFKPEQDEAWQNLAKAYTEETGTDVTVVTAASGQYETTLQSEMAKSDAPTLFQVNGPVGLKNWKDYCYDLKDADITKELTSDAYELKDGDAVAGIAYVIESYGLITNKTLLEKAGYTLDDIKSFDDLKKVADDIQARKDEIGVKGAFTSAGMDGSSDWRFKTHLANLPIYYEYKADGIDDTEAIKGTYLDQYKNVFDLYITDSTCDGSELSAKTADDSRNEFVNGDAVFYQNGSWEYAELAKTYSDDELAMIPIYFGVDDENEGLATGTENYWCVNKNASEEDVQATLDFMNWCVTSEAGTKSMSEDMGFTIPFKTAVAPTNVFVKQDAEYTEAGLTPVSWNFTTMPSEEWKNGLGTALTAYAAGTGDWDAVVSAFVDGWATEKALSE,not soluble
2,MKMKQVSRSALVSFSAEQMFHLVNDVARYPEFLPGCSGSCVLEQSEAHMVASVDVSKAGISKTFTTSNQLTPGVSIAMSLVDGPFKTLRGGWFFTPLDEAACKVELRLEFEFSSKMIELAFGKIFNELTSNMVNAFTRRAKQVYGEMAGDPLEHHHHHH,not soluble
3,MKNEMLALILAGGQGTRLGKLTQSIAKPAVQFGGRYRIIDFALSNCANSGIHNVGVVTQYQPLALNNHIGNGSSWGLDGINSGVSILQPYSASEGNRWFEGTSHAIYQNIDYIDSVNPEYVLILSGDHIYKMDYDDMLQSHKDNNASLTVAVLDVPLKEASRFGIMNTDANNRIVEFEEKPAQPKSTKASMGIYIFDWQRLRNMLVAAEKSKVGMSDFGKNVIPNYLESGESVYAYEFSGYWKDVGTIESLWEANMEYISPENALDSRNRQWKIYSRNLISPPNFLGANAHVEDSLVVDGCFVDGTVKHSILSTGAQVREGAEVLDSVIMSGAIIGQGAKIKRAIIGEGAIISDGVEIDGTDEVQVVGYNEVVGVATDED,not soluble
4,MKNIKEKGSQALKITATVFILAVICMSSAASAANLHVDPEAEEGYTTIQAAVDAANAGDTIFVSPGTYVENLKIDKQVRIWSDSRNPENTIVRPSDPAESPVEITGERVTFSGFGVEDSEKAGILLSGATSCFINNNRAQNSKYGILLQDAESNNINGNVITLNEAGLRLESSRSNTIQDNLIAYNYGPGISLEESSRNIFFNNYFKNAENIEENAANADNTWQSTLTVKRNLIRGPYIGGNFWADIEGTGYSETCEDKNSNGICDASYTLNGGGSDNSPLFPKVPSAVTALENKLDAEAYELGMETRGVEVNETENPAGEQTGENGPEGEENKTAETEASENGTPAPGIGFAIMAAGAAYFLKRRKAAALEHHHHHH,not soluble
5,MKNKLPPFIEIYRALIATPSISATEEALDQSNADLITLLADWFKDLGFNVEVQPVPGTRNKFNMLASTGQGAGGLLLAGHTDTVPFDDGRWTRDPFTLTEHDGKLYGLGTADMKGFFAFILDALRDVDVTKLKKPLYILATADEETSMAGARYFAETTALRPDCAIIGEPTSLQPVRAHKGHISNAIRIQGQSGHSSDPARGVNAIELMHDAIGHILQLRDNLKERYHYEAFTVPYPTLNLGHIHGGDASNRICAWCELHMDIRPLPGMTLNELNGLLNDALAPVSERWPGRLTVDELHPPIPGYECPPNHQLVEVVEKLLGAKTEVVNYCTEAPFIQTLCPTLVLGPGSINQAHQPDEYLETRFIKPTRELITQVIHHFCWH,soluble
6,MKNKNDQHLRLQQQIIHYRSEAASCRQQVQQLEAELAKEKMRSAYLKEKLREAETTNVETYKKKIAALERQLLLCEIALEETRYNTSKETQTPAFERAAAVSALFHYSVVVPTHLDEEELTIIGDFIIRNHGTAPLHHLIVCLRLSPPKTAVLSGKIVLPNSGRAEQEALISNSAESWTFTQENWREKVRQSGEYWLAPLYDAPLEPGEERRFSQFEITVPPSSNARSLTVDGFVYCAELPKGVPAANHIAIQW,not soluble
7,MKNLPIGGVWKGKVKLHSNSPAQDYFANITLNTLDPNHIDVFFPEFAHATPRVQLDLHPTGSVNGSNYAQDLTMLDMCLYDGFNGNAISYEIMLKDEGRPAAGRRDGYFSIYRQGGTTTDEGERIDYRVKMYNPETGGQIDVRNNENMVWNSINLKRVRPVVLPGIRYAVMCVPTPLTLAVDKFSVMDKQAGYYMGKLSVIFTPSLPTIN,not soluble
8,MKNNPKTRYPLRLEESYAKNIQKAVKEIEKVSLYEFDKYLAPMIDDKNIVNDSNLINDGLFDAASKLIRNAQTYFLGILQNRTAQKIVRKHINSVNAFNKSNVNSQLSARGINPLQTEKWLDSYVQAKIAENISYVTNIRDDYSKKFEQVIYRGITEGKSSNEIREELVHQAGMSSDKAAFIARDQTGTILGQMNSERQKRAGFQAFRWSDSGDERVRDSHRERNGKIYFYADNPLLPGEEYNCRCVAEPVDDEELLEESIDLGLSNQEEHAVKTYVSSEAYKLNDKLRNGYQLDESDLKLIDNLDKALGKMTNYDGEVTRSMFFDSSDDLVRFANNYNLNDVVQFPEYISTTKDIYSEQDSLRFVIMSSTGKDLGSYNKSEKEVLFNRDAKFIVKDRYLLDGKPFIVLEEYHE,not soluble
9,MKNPQSKADDILQCARTLIIRGGYNSFSYADISQVVGIRNASIHHHFPSKSDLVCKLVSQYRQEAEAGIAELEKNISDPLEQLRAYIGYWEGCIADATHPFCVCALLASEIPVLPETVVLEVRAHFRSLSDWLTAVLERGIAQGRLVLTGTARANAEIFMATVHGAMLSARAHGDAATFGAITRPMLERITA,soluble
10,MKNVGDVGDLCTGCGTCAAMCPLESVVMRIDHDRGVYEPLVDGECDGCGVCLRVCPGVGVDFTDLNMRVFGREPDDMLMGNYEECYIAHSRDDELRYGASSGGMISQILIYLLEEGLIDGALVTRMNPERPLEPEPFIARTPSEIIESRGSKYCPVPANVALKEILEVPGRYAVVGLPCHIHGVRKAEVISRKLRERIVYHLGIVCNHAPSFRATEFLLERLGVDPGDVKSIRYRGEGWPGSLRVETESGDLLLLPEYWGSGFGQLFMPERCRLCADHMAELSDISFADPWLKELKDEKKGRTLVIIRKWPEKFAGILKGGICEMDKIKPEKALLSQIYNIYMKKKLCRRSMYNGSFPEIDFIDRIILSFEPSRLKIPWTIKRRYIFFYSMIVALKARMDFLGDSKLEHHHHHH,soluble
11,MKNVLILGAGGQIARHVINQLADKQTIKQTLFARQPAKIHKPYPTNSQIIMGDVLNHAALKQAMQGQDIVYANLTGEDLDIQANSVIAAMKACDVKRLIFVLSLGIYDEVPGKFVEWNNAVIGEPLKPFRRAADAIEASGLEYTILRPAWLTDEDIIDYELTSRNEPFKGTIVSRKSVAALITDIIDKPEKHIGENIGINQPGTDGDKPFFM,soluble
12,MKPAIKRACLLGTALFSLCASAAQAAGVLVGTWDLRGNGQLAAVYRDGANLQVVEGGSTRNYSFGNVVWSVFGATDTDGQPGAEILVKAGPDLVIVSHASTTQRKYPVGNVSWAIMRATDVDNVAGDEVILSIGNGVRTVFDRTRTQRDATFSYNGTWGLFDVADVDGAPGKELVLNMGNGVKVIDPRTSGAKDFTFSGYHALAQIADLDGQPGAEIIGRTSTGIYVISNASSRKEYSIGASAWALYGGTADTDGKPGNELIVVMQGKVRVIHHASGASSDYRIGDVNYSIDSVADMDGQPGAEILVRDANGKLFVINDRTGKVSS,not soluble
13,MKPAYPPLLLQMSPAYTPRPLKNLFTANQCWAHLIEEGGLRDIEVESVTKMLACGTSILGVKHYTCGNHSCPHVKYLCNTCSCRACPSCGKKATDQWIANQQHRLPECTWQHLVFTLPDTLWPLFFHNRHWLDALCRLAVDNLLYAGRRRGVEVGVFCAIHTYGRRLNWHPHIHVSVTLGGIDDAGVWKDLSFHPSALRRRWMWNVRQYLLSQWEHTTVPPENAHLQSENDWRHLVLNAGGQHWHIHLSKKTKNGKKTVNYLGRYLKKPPISGSRLAHYTSGATLSFTYLDHRTKTYQQETLSQTDMLRRVVQHIPEKHFRMIRYFGFLANRVCGRQLPRVYEAIRMERRGKAPKLYFAQMSKAFLHRDPFSCVLCGARMVYTAAIAGLTVQGLINNAQSIAQLRYVPA,not soluble
14,MKPDETPMFDPSLLKEVDWSQNTATFSPAISPTHPGEGLVLRPLCTADLNRGFFKVLGQLTETGVVSPEQFMKSFEHMKKSGDYYVTVVEDVTLGQIVATATLIIEHKFIHSCAKRGRVEDVVVSDECRGKQLGKLLLSTLTLLSKKLNCYKITLECLPQNVGFYKKFGYTVSEENYMCRRFLK,soluble
15,MKPIDRFSYLKNNRVSQDTSSLVQCYLPIIGQEALSLYLYTISFWDNGRKEYLFSSILNHLNFGMDRLIKSLKILSAFNLLTLYQKGDVYQLALHAPLSSQDFLGHPVYRRLLEKKIGDVAVEDLKVESADGEEIPVSLNQVFPELAELGSQEDLGLKKKVANDFDLEHFRQLMARDGLRFADEQSDVLNLFAIAEEKKWTWFETYQLAKSTAVSQVISTKRMREKIAQKPVSSDFSLKEATIIKEAKSKTALQFLAEIKQTRKGTITQTERELLQQMAGLGLLDEVINIILLLTFNKVDSANINEKYAMKVANDYAYQKIHSAEEAVLRIRDRGQKAKTQKQNQTAPEKTNVPKWSNPEYKNETSEETRLELERKKQELLARLEKGGD,not soluble
16,MKPLLLSRRTHQKPGNYASGRGFPSSTRYIEDVQWLLKEFEPFVRVSADLPFVKARDIALIRSELEKKKPASLEVCLLEHHHHHH,not soluble
17,MKPVQSVSATQHYNPLTNLGQEASCSHEISGITQTEGMQATAATTQTAEQLTTARVRDITAAAKVIPDGTTVMSRKPEDLSQLQTAYLAAKNAPTHPDLYLKLCETFRVHDERHASEGHENICAKTMTARIDDDAIRVMAYASRGMHGGDVNNFLKFSFNSGLPNPISSALPSMLTFGASSFIGAVHGPWSGFGSALAFAAAKPFMAGGIQPAIVSLCDNIRGRNAPTVLAKGEVNDEIWLDAAAQTLEGLNEDTRRALTSFDDAVQAAITSVGIRDPKFLETDEGLELFFDHLSDTHFNCLREALEGVNNALQNTAPQTRESLRALEEASRPNMLEQRETTLKAEFSNLRQKEGNDWQRIPRSLRASGGTLTSGLSGLKRDEIPTRMNPALDRKSHFEGLNALASPAVGTSYAAAISLLQSPMAGLDERNKQKFNVKAAIVFYDAFTPEGKQRYLAGEEMDPDRDVDQAKLRGVFTSVSEYMVKSTQENLKQRQKVLGVEISEAGHALNALPENTSSITPPEIRAKVERYKALSADMSAVTQAIREGNPNFLTDLPDGEVKKAFDDCVNSGGMHVLENMTKVKYAKQGELKAQWTQKVSTDVSMFGLAGQFTPSIVNKLAAAICGGAGHIPNAVVGFLGAYSLAASFIGAQTQFAAINAKNNFREGNPKPTSLETFMRGNLAPVMQASANRHSQHALQGAEQAISTARQALNSSLGQNL,not soluble
18,MKQFNLIATSGQGIEALVAKELNNLGYQTRTENGFVRFSGNQRDILKTNIWLRTADRIKILVGEFHTLRFDDLFESVKALPWSELINWDDQFPVMEAHSRDSQLFSVPDIQRITKKAIVEALRSQTGHEDLPETGKHVGIDIRIDKNNVRIMIDTSGESLFKRGYRTEHGGAPLKENFAAALVLLTNWFTDNPFVDPVCGSGTIPIEAALIGKNIAPGINRTFEIESWAWFDKKLSQDVREEADILAKYDQPLDISGYDIDGNMIRISKENAKKAGLYNDIAFKQLAVKDWQTDKINGILVANPPYGQRLGEIEDARQIYQQMGSIYNQMSTWSKYILTSDEKFEQFYGKKATKKRKLYNGPIRTDLYQYWGKKVR,not soluble
19,MKQLTVEDAKQIELEILDYIDTLCKKHNINYIINYGTLIGAVRHEGFIPWDDDIDLSMPREDYQRFINIFQKEKSKYKLLSLETDKNYFNNFIKITDSTTKIIDTRNTKTYESGIFIDIFPIDRFDDPKVIDTCYKLESFKLLSFSKHKNIVYKDSLLKDWIRTAFWLLLRPVSPRYFANKIEKEIQKYSRENGQYMAFIPSKFKEKEVFPSGTFDKTIDLPFENLSLPAPEKFDTILTQFYGDYMTLPPEEKRFYSHEFHAYKLEDLEHHHHHH,soluble
